Data on one substance can be found in patent US20060003939.

Data set [1] addresses 35S-methionine labeled wild type DIAP1, in vitro translated from diap1-pET14b (UniProt Q24306).
In data set [2] the target is His-DIAP1 21-4S mutant (RING domain mutant), in vitro translated from diap1 21-4S pET14b (UniProt Q24306).
Sequence of His-DIAP1 21-4S mutant (RING domain mutant), in vitro translated from diap1 21-4S pET14b (Q24306 other isoform, or with tags, fused parts or gaps mutant): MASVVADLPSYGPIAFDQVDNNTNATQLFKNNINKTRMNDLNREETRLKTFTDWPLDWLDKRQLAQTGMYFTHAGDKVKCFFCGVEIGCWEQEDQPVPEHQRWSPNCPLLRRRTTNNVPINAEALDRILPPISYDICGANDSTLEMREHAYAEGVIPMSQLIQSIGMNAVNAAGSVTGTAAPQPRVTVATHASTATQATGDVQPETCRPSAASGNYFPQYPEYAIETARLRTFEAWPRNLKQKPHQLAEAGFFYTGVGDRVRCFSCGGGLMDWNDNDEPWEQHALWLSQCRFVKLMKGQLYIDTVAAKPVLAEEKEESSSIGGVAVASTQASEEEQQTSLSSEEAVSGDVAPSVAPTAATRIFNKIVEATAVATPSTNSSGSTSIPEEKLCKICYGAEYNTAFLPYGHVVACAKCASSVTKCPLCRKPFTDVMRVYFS

Sequence of 35S-methionine labeled wild type DIAP1, in vitro translated from diap1-pET14b (Q24306 whole entry, the tested form may be a part): as the sequence (Q24306 other isoform, or with tags, fused parts or gaps mutant) above, with Y406C counted along it

His-UBCD1: the “in vitro ubiquitination reaction” value is “Wild-type DIAP1 (lane 4) showed marked ubiquitination” in data set [1] and “whereas the His-DIAP1^21-4S mutant (RING domain mutant) did not (lane 7), in the presence of ubcD1” in data set [2].
